Data taken from the DeepSol protein solubility set.

experiment: soluble on expression in E. coli; label from the status in PepcDB or PDB records

Row | Sequence | soluble on expression in E. coli
1 | MSQFFYIHPDNPQQRLINQAVEIVRKGGVIVYPTDSGYALGCKIEDKNAMERICRIRQLPDGHNFTLMCRDLSELSTYSFVDNVAFRLMKNNTPGNYTFILKGTKEVPRRLLQEKRKTIGMRVPSNPIAQALLEALGEPMLSTSLMLPGSEFTESDPEEIKDRLEKQVDLIIHGGYLGQKPTTVIDLTDDTPVVVREGVGDVKPFL | soluble
2 | MSLKITDVQLTAIGMPRLTGFVNKHVIVQLFTDEGIEGIGEMSDFSHLPKYAVDIVDLERTLKQILVGKNPFDIAPINTELNGNFPEAMYYYEKGSFIRNGVDTALYDLCAKALGVSVSDLLGGRQREKIKVCFPIFRHRFMDEVEANLELVKKQYEKGFDVFRLYVGKNVDADEAFLAGVYNEFGGKVKVKSLDFSHLLDWKEALRITRRLAKYPIDLVESPALRNDFAGLHHFRMRCELPVSEHVWSLRQQSEMIKHDSVDIFNIAPVFIGGITQARKAADAAAVAEKSVLIGTTQELSIGTTAMAYFGSTLDHLNYISDPTGPELYVGDVVKNKVNYENGYLHLPERSTIGLGMELDWEKVEQYRVESLNWEDVSVHQLQDRTAQTRAEGHHHHHH | soluble
3 | CEVDALKGTNESLERQMREMEENFAVEAANYQDTIGRLQDEIQNMKEEMARHLREYQDLLNVKMALDIEIATYRKLLEGEESRI | soluble
4 | MEVHAADQYLVAPGEADLLEVHARLAGTGLFPPFPPVELPGGVGGLVARGGFAQTFFFPAEVLGLTFRTPKGRRVRAGGVVVKNVQGYDLVRLFVGSFGLLGRAEEVVLRLRPGRAQAFLRRPFSGSFPRLVPTPRFLFALEDEEGPWLYAYHFGHPKEVERFREAFGGEEARPLDLRPRFPRGLGLGEGPLWDLRFRYQDGGASPPPPPAFLRLARVL | soluble
5 | MGSDKIHHHHHHMEFQLDKDWRLQPIKGATGQTYMGIKETEKVFIKRNTSPLLAALSKEGLAPKMIWTKRTANGDVLTAQEWLEGRLLHADEIGKRNDVIDVLYQLHHSNLLKDMLKKIGGEVCTPLTMLKEYKRQLPKELKRNSYLKEVITYLYNHLPEYPETSYVAVHGDVNHRNWLVSNNYLYLVDWDSVMVADPAVDLGMILSHYVPRSGWNQWLLSYGLIPNESTVQRIYWYGLFSFLQEIVRHHQEGERRAMTAEILQLKRMFSI | not soluble
6 | MSQRGLEALLRPKSIAVIGASMKPNRAGYLMMRNLLAGGFNGPVLPVTPAWKAVLGVLAWPDIASLPFTPDLAVLCTNASRNLALLEELGEKGCKTCIILSAPASQHEDLRACALRHNMRLLGPNSLGLLAPWQGLNASFSPVPIKRGKLAFISQSAAVSNTILDWAQQREMGFSYFIALGDSLDIDVDELLDYLARDSKTSAILLYLEQLSDARRFVSAARSASRNKPILVIKSGRSPAAQRLLNTTAGMDPAWDAAIQRAGLLRVQDTHELFSAVETLSHMRPLRGDRLMIISNGAAPAALALDALWSRNGKLATLSEETCQKLRDALPGHVAISNPLDLRDDASSEHYVKTLDILLHSQDFDALMVIHSPSAAAPATEIAQVLIEAVKHHPRSKYVSLLTNWCGEHSSQEARRLFSEAGLPTYRTPEGTITAFMHMVEYRRNQKQLRETPALPSNLTSNTAKAHLLLQQAIAEGATSLDTHEVQPILQSYGMNTLPTWIASDSTEAVHIAEQIGYPVALKLRSPDIPHKSEVQGVMLYLRTANEVQQAANAIFDRVKMTWPQARVHGLLVQSMANRAGAQELRVVVEHDPVFGPLIMLGEGGVEWRPEDQAVVALPPLNMNLARYLVIQGIKSKKIRARSALRPLDVAGLSQLLVQVSNLIVDCPEIQRLDIHPLLASGSEFTALDVTLDIAPFEGDNESRLAVRPYPHQLEEWVELKNGERCLFRPILPEDEPQLQQFISRVTKEDLYYRYFSEINEFTHEDLANMTQIDYDREMAFVAVRRIDQTEEILGVTRAISDPDNIDAEFAVLVRSDLKGLGLGRRLMEKLITYTRDHGLQRLNGITMPNNRGMVALARKLGFNVDIQLEEGIVGLTLNLAQREES | not soluble
7 | MSLSKNKYLFKYLIVDRKKLDPSYTYKYDNIQWNHKIIAIGDIHGDVESLKLILRHSNLIDENDEWIAEDVMLVQVGDILDRGVFGTYIYDYLLKLQKDAIKKNSKVILIMGNHEQLNLCGAFHYVNESEVMLFFQNNRNNRLFSFTNKNGYYFKKLIRLPVIVKINNIIFTHGGISKHMSEYDINTINLKTRLQIENKCKMFQFEKYNYLSKEGVLWNNEISHQVKLQPKKTCKHLRNILKKYNAKGLVVGHTRQKSHEIQTYCNNSFFLIDTGMSLFMNNGQPYPNYLQIEKGKFKTVHLIVQEYNRKEGHHHHHH | not soluble
8 | MGSDKIHHHHHHMERMKAFLTDENFKHEINFDNDLLPYKIYQTTIANGYPDALFHWHPELEISYIYEGTAQYHIDYDYFNSQTDDIILVRPNGMHSIHPIKNKMQKAQTLLFHLDLVGYSLLDQISLRYLQPLQNSTFKLVPCIKPDMLGYQDIKNCLFAIFDIYQRQGRHFELLLKAKLQELIYLLYFHQYVLRKHSDDMYRKNEKIRELIDYIHQHYQEKLFIISLADIIGYSKTHFMTVFKQHTGTSCTDFIIQFRLSKACDLLVNSIKPILEVASEVGFTNLSNFNRQFKRYYQITPSQYRKQFKKTQK | not soluble
9 | MSQAELFTISDLAREFDVTLRTIRFYEEQGLIEPQRDGRQRLFTRRDRGRLKLILRGKRIGLSLAEIREIIDMYQLARDEASQSQKLLDLLLARRRQLEAQRRDIDAVLDEIATLENHCRDVIDSQSSVA | not soluble
10 | MGSSHHHHHHSSGLVPRGSHADYEVVHDTFEVNFDGWCNLGVDTYLTAVENEGNNGTRGMMVINRSSASDGAYSEKGFYLDGGVEYKYSVFVKHNGTGTETFKLSVSYLDSETEEENKEVIATKDVVAGEWTEISAKYKAPKTAVNITLSITTDSTVDFIFDDVTITRKGMAEANTVYAANAVLKDMYANYFRVGSVLNSGTVNNSSIKALILREFNSITCENEMKPDATLVQSGSTNTNIRVSLNRAASILNFCAQNNIAVRGHTLVWHSQTPQWFFKDNFQDNGNWVSQSVMDQRLESYIKNMFAEIQRQYPSLNLYAYDVVNAAVSDDANRTRYYGGAREPGYGNGRSPWVQIYGDNKFIEKAFTYARKYAPANCKLYYNDYNEYWDHKRDCIASICANLYNKGLLDGVGMQSHINADMNGFSGIQNYKAALQKYINIGCDVQITELDISTENGKFSLQQQADKYKAVFQAAVDINRTSSKGKVTAVCVWGPNDANTWLGSQNAPLLFNANNQPKPAYNAVASIIPQSEWGDGNNPA | soluble
11 | QSKDGSVRHSGDNRTGQGDGDDETITVDLTRLPAAVTTVIFSVNNYTGQDFGQVENAYCRLVNTQGGQEIARYNLSVQGNHSAMILASLKRQGGDWAMTAIGAPSR | not soluble
12 | MGSDKIHHHHHHMDSSMPSTPHASAYPIGKPGQVWGEEEKSLWLNKQVIQRSYAEQVLALILDPASISANTADPMETTATQSNAHPEITSALELVHYNTLAYNTLHQGASDYPVYLFKSRHWDETKPNVLITGGVHGYETSGVQGAIRFLRTKAQHYCQHANLIIVPCLSPWGYETINRWNPHAIDPNRSFVHDTAPHDTAMTQAKAQASKVQLSDVQEAHALMAALGELAVNFSLHIDLHETTDSDNAEFRPALAARDGTSYDNWDIPDGFYLVGDTLKPQAEFQKAVINAVNAITHIAPAGEHARLIGVPIAQFGVINYPTKALGLCAGMTDATYCTTTEVYPDSPLVDDENCILAQVAAITGALDYVIKNR | not soluble
13 | MKLGILHFTDSHIKSATDWILSEFSSLVASVKTIYEECDRIYIVFTGDVVYSGSEEEYILASKFLNSIRSLLKTLYKDKVYEQIIFTPGNHDCNFNMDRQARKML | not soluble
14 | MGSDKIHHHHHHMSELNNQLWASADILRGKMDASEYKNYLLGLVFYKYLSDQELRAVYEEEQGKVAEYPSRDEQFSGLLDWYNDDAAGIREIISKKLGYFIEPDSLFYTFRKKAGEYELHISDIQNAFIELGRQGEHFAGLFDDVDLASTKLGANAQQRNVTITEVIKALDEIDLFGHDGDVIGDAYEYLIGQFAAGAGKKAGEFYTPQAVSKIISEIVAIGQEETAPFHIYDPTMGSGSLMLNIRRFVKNPGQVHYHGQELNTTTYNLARMNLILHNVEQSQMRLRNGDTLDEDWPTDEPYLFNAVVMNPPYSANWSADGKFLSDPRFEQYGKLAPKSKADFSFLLHGFYHLNEKGTMGIVLPHGVLFRGASEGVIRKTLLDMGAIEAVIGLPANIFYGTSIPTVVLILKKNRAKRDVLFIDASKAFEKQKNQNCIRSQDIRKIVDTYKKRSSSPQYAHLADYDEIVRNDYNLNIPRYVDTFEEEAPIDIVALSKEITDLNLQIKQREAEFLGMLSQLAITDETKELIEATKGIFM | not soluble
15 | MGSDKIHHHHHHELGMQDNLNDSKILLSSDEYISIAYDNPGIITSEEAKQLVLDFNPTGLQTRNNNVKIMAISTYNVSSSSGLKTRVGSTNLTTIPVYKIEFLSDEGKGVAYVPADERFAKIMAYLPKTDLKDSVKYVDSKSMLYLSELSLLEDAKYYEKVKSELRAKTLAKIAKTLNVKAVRYDEIQDIIIVKDEILSRSEPTFPIGNPIGFAGLYCSSTEWNQDAPYNDLLQKENCDLYDTGSPTYEAVPAGCAVISIAQIMASLEPDLTVDGLKIDWNILKAQKQIIAPSSWQTPSSETTREMVAKLIKYIYIATNTQPVRNSSGYVTGSGTYSSDTSSFFYRFFSTSGLKNGWDGNAAFQSLQLAKLVWIAATSNRGGSHAFILDGFAYWRPQTRYLVKNFDFYFHANMGWGGYYDGFYLVNKDLSITFDTSNGSYDRNFSMIYNIINK | not soluble
16 | MSLYVSKLFTSQQWRELKLISYVTENADAIGVKDKELSKALNISMLTLQTCLTNMQFMKEVGGITYKNGYITIWYHQHCGLQEVYQKALRHSQSFKLLETLFFRDFNSLEELAEELFVSLSTLKRLIKKTNAYLMHTFGITILTSPVQVSGDEHQIRLFYLKYFSEAYKISEWPFGEILNLKNCERLLSLMIKEVDVRVNFTLFQHLKILSSVNLIRYYKGHSAVYDNKKTSQRFSQLIQSSLEFQDLSRLFHLKFGLYLDETTIAEMFSNHVNDQLEIGYAFDSIKQDSPTGCRKVTNWVHLLDELEIRLNLSVTNKYEVAVILHNTTVLKEEDITANYLFFDYKKSYLNFYKQEHPHLYKAFVAGVEKLMRSEKEPISTELTNQLIYAFFITWENSFLKVNQKDEKIRLLVIERSFNSVGNFLKKYVGEFFSITNFNELDALTIDLEEIEKQYDVIVTDVMVGKSEELEIFFFHKMIPEAIIDKLNAFLTSALQQEGHHHHHH | soluble
17 | MAHHHHHHMTVKVASEVSLLPYGEHQGSFRGVVACSNRDDGYFSGENNYVDTSIYTGFRYQCVEYARRFLLLTTGCVFANCGRASEIYAMDHITHVETGAQYTLHRHHNDGTATQKPAPGDIIIYPYHPELTPWGHVGVISFVDDNRVGIAEQNHYFGPFTSPSESYLDGERCVARYAMLTLDEATKTWRIDEPGAMPSAVGWLSYPDAPTREQIHAPFTPLPCAIKVRSTPFDQDDHPFLTHYHLHKIFDIPSGCVRHAYGMRNGTAETLVGATSAAARVLRFTLHLLFHRGRLGPAFRALPTNPLNATLPEGAGASTEACREVDALFKVLAEEDVVNATETTPDRLRQAVATYFDIPVEWVMAMERDFAKGETHMAAVVSFYPNIATDSAALEAFRAARKRSGTWAAPAVGTVPLTTAKASTPVAEEPLTLSYPATVEELPLKNPHDEAWHLATVNFGNARVMTELSQLNKVKQDLTETIALMTPSMRPFISTQYRMDFAGYLKVVEAVYGPRTGFTIVVSDDQPMDGLLRELVSTVQNLCEHVEYPVRIVNEKDLTFVNGKLHATPSAISPEAGSHMTNIAPSGAYDVNFVYALCEWPRILACREATHAALYRAAVDPASDVVFAKPLWSYLCSGAVNVSDDAERAHYSHSPRSPSVRFFDVCRRLYLLASPTQQPKTWDLEVSEYKDSCRRIHVDAETVPMHSPAHLNADSLMINLAGSCYMGHAGGTLSVESENTGIHVGHPAFLMFMFPAD | not soluble
